These results are taken from publication PMC6069116.

For the assay, the target named is HrpG/HrpV complex from Erwinia amylovora, separately produced (Erwinia amylovora). The experiment in a line: SEC-MALS. (Size exclusion chromatography separates by hydrodynamic size, large species first.)

“HrpJ from Erwinia amylovora, separately produced and purified (natural protein)” came in with a stoichiometry N (HrpG:HrpV:HrpJ) of 1.
